In paper PMC5598764:

Target: Porcine skeletal actin, pyrene-labeled (porcine) (UniProt P68137)
Test: stopped-flow fluorescence

Cardiac myosin from porcine left ventricular tissue (from UniProt P79293 1-1935) (complex)
kon: 0.35 M⁻¹ s⁻¹
